Measured values as given in patent US20180155451A1 (published 2018).

Biological target: FcγRIIa H (human FcγRIIa, allotype with His at position 131), extracellular domain with C-terminal His tag (human, UniProt P12318 34-217)
Assay: SPR (Biacore), antibody captured on antigen peptide chip, FcγR as analyte; relative to HeCon Ab GpH7-A5/GpH7-B3/GpL16-k0 = 100

B1: GpH7-A5/GpH7-B3 variant K334_04F/GpL16-k0 (antibody, human IgG1, kappa)
heavy 1: not shown
heavy 2: not shown
light: DIVMTQSPLSLPVTPGEPASISCQASESLVHSNRNTYLHWYLQKPGQSPQLLIYKVSNRFSGVPDRFSGSGSGTDFTLKISRVEAEDVGVYYCSQNTHVPPTFGQGTKVEIERTVAAPSVFIFPPSDEQLKSGTASVVCLLNNFYPREAKVQWKVDNALQSGNSQESVTEQDSKDSTYSLSSTLTLSKADYEKHKVYACEVTHQGLSSPVTKSFNRGEC
notes: heterodimerized, mutation in one H chain only; also called He Ab
B1 showed a He/Con_2aH of 106 control = 100.

B2: GpH7-A5/GpH7-B3 variant T335_19Q/GpL16-k0 (antibody, human IgG1, kappa)
heavy 1: not shown
heavy 2: not shown
light: B1 light
notes: as for B1
With B2 the He/Con_2aH was 103 control = 100.

B3: GpH7-A5/GpH7-B3 variant S267_02A/GpL16-k0 (antibody, human IgG1, kappa)
heavy 1: not shown
heavy 2: not shown
light: B1 light
notes: as for B1
With B3 the He/Con_2aH was 120 control = 100.

B4: GpH7-A5/GpH7-B3 variant S324_02A/GpL16-k0 (antibody, human IgG1, kappa)
heavy 1: not shown
heavy 2: not shown
light: B1 light
notes: as for B1
With B4 the He/Con_2aH was 102 control = 100.

B5: GpH7-A5/GpH7-B3 variant L235_04F/GpL16-k0 (antibody, human IgG1, kappa)
heavy 1: not shown
heavy 2: not shown
light: B1 light
notes: as for B1
B5 gave a He/Con_2aH of 111 control = 100.

B6: GpH7-A5/GpH7-B3 variant K334_16H/GpL16-k0 (antibody, human IgG1, kappa)
heavy 1: not shown
heavy 2: not shown
light: B1 light
notes: as for B1
B6 showed a He/Con_2aH of 104 control = 100.

B7: GpH7-A5/GpH7-B3 variant T335_01G/GpL16-k0 (antibody, human IgG1, kappa)
heavy 1: not shown
heavy 2: not shown
light: B1 light
notes: as for B1
Binder B7 has a He/Con_2aH of 103 control = 100.

B8: GpH7-A5/GpH7-B3 variant T335_16H/GpL16-k0 (antibody, human IgG1, kappa)
heavy 1: not shown
heavy 2: not shown
light: B1 light
notes: as for B1
For B8, the He/Con_2aH was 105 control = 100.

B9: GpH7-A5/GpH7-B3 variant K334_08L/GpL16-k0 (antibody, human IgG1, kappa)
heavy 1: not shown
heavy 2: not shown
light: B1 light
notes: as for B1
B9 was tested, and the He/Con_2aH was 104 control = 100.

B10: GpH7-A5/GpH7-B3 variant T335_15Y/GpL16-k0 (antibody, human IgG1, kappa)
heavy 1: not shown
heavy 2: not shown
light: B1 light
notes: as for B1
With B10 the He/Con_2aH was 106 control = 100.

B11: GpH7-A5/GpH7-B3 variant L235_20W/GpL16-k0 (antibody, human IgG1, kappa)
heavy 1: not shown
heavy 2: not shown
light: B1 light
notes: as for B1
B11 showed a He/Con_2aH of 118 control = 100.

B12: GpH7-A5/GpH7-B3 variant T335_13S/GpL16-k0 (antibody, human IgG1, kappa)
heavy 1: not shown
heavy 2: not shown
light: B1 light
notes: as for B1
In the case of B12, the He/Con_2aH is reported as 106 control = 100.

B13: GpH7-A5/GpH7-B3 variant L328_14T/GpL16-k0 (antibody, human IgG1, kappa)
heavy 1: not shown
heavy 2: not shown
light: B1 light
notes: as for B1
Binder B13 has a He/Con_2aH of 116 control = 100.

B14: GpH7-A5/GpH7-B3 variant T335_10E/GpL16-k0 (antibody, human IgG1, kappa)
heavy 1: not shown
heavy 2: not shown
light: B1 light
notes: as for B1
B14 showed a He/Con_2aH of 108 control = 100.

B15: GpH7-A5/GpH7-B3 variant S337_10E/GpL16-k0 (antibody, human IgG1, kappa)
heavy 1: not shown
heavy 2: not shown
light: B1 light
notes: as for B1
B15 was tested, and the He/Con_2aH was 102 control = 100.

B16: GpH7-A5/GpH7-B3 variant L328_20W/GpL16-k0 (antibody, human IgG1, kappa)
heavy 1: not shown
heavy 2: not shown
light: B1 light
notes: as for B1
B16 gave a He/Con_2aH of 113 control = 100.

B17: GpH7-A5/GpH7-B3 variant T335_07I/GpL16-k0 (antibody, human IgG1, kappa)
heavy 1: not shown
heavy 2: not shown
light: B1 light
notes: as for B1
B17 gave a He/Con_2aH of 108 control = 100.

B18: GpH7-A5/GpH7-B3 variant S337_09D/GpL16-k0 (antibody, human IgG1, kappa)
heavy 1: not shown
heavy 2: not shown
light: B1 light
notes: as for B1
B18 showed a He/Con_2aH of 107 control = 100.

B19: GpH7-A5/GpH7-B3 variant L235_15Y/GpL16-k0 (antibody, human IgG1, kappa)
heavy 1: not shown
heavy 2: not shown
light: B1 light
notes: as for B1
B19 was tested, and the He/Con_2aH was 122 control = 100.

B20: GpH7-A5/GpH7-B3 variant L328_06M/GpL16-k0 (antibody, human IgG1, kappa)
heavy 1: not shown
heavy 2: not shown
light: B1 light
notes: as for B1
B20 showed a He/Con_2aH of 104 control = 100.

B21: GpH7-A5/GpH7-B3 variant Y296_18N/GpL16-k0 (antibody, human IgG1, kappa)
heavy 1: not shown
heavy 2: not shown
light: B1 light
notes: as for B1
With B21 the He/Con_2aH was 104 control = 100.

B22: GpH7-A5/GpH7-B3 variant S239_09D/GpL16-k0 (antibody, human IgG1, kappa)
heavy 1: not shown
heavy 2: not shown
light: B1 light
notes: as for B1
B22 was tested, and the He/Con_2aH was 114 control = 100.

B23: GpH7-A5/GpH7-B3 variant V266_07I/GpL16-k0 (antibody, human IgG1, kappa)
heavy 1: not shown
heavy 2: not shown
light: B1 light
notes: as for B1
B23 showed a He/Con_2aH of 106 control = 100.
